Reference: US20070271623A1 (UNIVERSITY OF COPENHAGEN, published 2007)

Assays:
[1] = biological target: T1, mutant MKS1-S30A C3-truncation (histidine-tagged)
T1 chain: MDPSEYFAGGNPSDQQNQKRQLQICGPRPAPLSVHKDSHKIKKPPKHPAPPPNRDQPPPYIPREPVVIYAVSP

[2] = biological target: T2, mutant full-length MKS1-S30A (histidine-tagged)
T2 chain: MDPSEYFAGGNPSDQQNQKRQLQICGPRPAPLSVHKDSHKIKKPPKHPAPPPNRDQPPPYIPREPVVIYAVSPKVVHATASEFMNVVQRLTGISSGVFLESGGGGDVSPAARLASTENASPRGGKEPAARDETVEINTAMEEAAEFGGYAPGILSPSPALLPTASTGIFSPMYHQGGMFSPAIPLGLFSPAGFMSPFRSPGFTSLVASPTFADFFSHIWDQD

B1: HA (influenza hemagglutin antigen)-tagged MPK4 (protein)
chain: YPYDVPDYAYPYDVPDYAYPYDVPDYAYPYDVPDYAYPYDVPDYAYPYDVPDYAMSAESCFGSSGDQSSSKGVATHGGSYVQYNVYGNLFEVSRKYVPPLRPIGRGAYGIVCAATNSETGEEVAIKKIGNAFDNIIDAKRTLREIKLLKHMDHENVIAVKDIIKPPQRENFNDVYIVYELMDTDLHQIIRSNQPLTDDHCRFFLYQLLRGLKYVHSANVLHRDLKPSNLLLNANCDLKLGDFGLARTKSETDFMTEYVVTRWYRAPELLLNCSEYTAAIDIWSVGCILGETMTREPLFPGKDYVHQLRLITELIGSPDDSSLGFLRSDNARRYVRQLPQYPRQNFAARFPNMSAGAVDLLEKMLVFDPSRRITVDEALCHPYLAPLHDINEEPVCVRPFNFDFEQPTLTEENIKELIYRETVKFNPQDSV
Question: For B1, which “in vitro phosphorylation assay (32P-γ-ATP, SDS-PAGE, phosphorimager)” value [1] is on record?
Answer: the mutant C3 truncated MKS1 (C3-S30A) was not phosphorylated by HA-tagged MPK4

Question: And the “in vitro phosphorylation assay (32P-γ-ATP, SDS-PAGE, phosphorimager)” value [2]?
Answer: the mutant full-length MKS1 (S30A) was phosphorylated
